Assay results as given in US9504759B2, “Surface modified proteinaceous spherical particles and uses thereof” (BAR-ILAN UNIVERSITY, priority 2011, dated 2016).
Square brackets hold non-standard residues; d marks the D form. Ends that are not written are not given here. Peptide text beside a SMILES is read from it. Nle = CCCC[C@H](N)C(=O)O

What was measured:
[1] = test system: murine microglia (BV-2) cells; experiment: Phagocytosis by murine microglia (BV-2) cells (confocal microscopy, SEM, FACS); assay type: cell-based; settings: LPS-treated cells, 30 minutes exposure
Aβ40 [2] = target: T1, Aβ40 (Homo sapiens, UniProt P05067); assay type: biochemical; settings: for effect on rate (kinetics) of Aβ aggregation: ThT assay monitored for three days of incubation; for effect on Aβ aggregation (ThT fluorescence): molar ratio of Aβ to peptide or peptide equivalent 1:2, 1:4, 1:6.5, SMOP BSA:KLVFF 1:500, three days, FIG. 2A
T1 construct: incubating fresh monomerized (non-aggregated) solutions of Aβ40
Experimental: In addition, an indirect assay (ThT [Thioflavin T] assay) was performed as follows. […] The fluorescence is measured and correlated to presence of amyloid plaque formations. Agents which bind and inhibit amyloid plaque formation decrease fluorescence of ThT. The inhibitory activity of KLVFF (SEQ ID NO 1)-modified SMOPs on Aβ40 aggregation was determined in black 96-well flat-bottom plates by incubating fresh monomerized (non-aggregated) solutions of Aβ40 (33 micromolar (μM), 15 μl)with different preparations of the SMOPs (25 μl, Table 1) in PBS. PBS was added to reach a volume of 50 μl, giving a final concentration of 10 μM for Aβ40. […] The plates were sealed with aluminum foil and incubated while shaking at 750 rpm at 37° C. for 72 hours to induce aggregation. Following the incubation, a solution of ThT (24 μM, 150 μl) in glycine buffer (50 millimolar (mM), pH 8.5) was added to each well and the fluorescence of amyloid-bound ThT was immediately measured using a plate reader (Infinite M200, Tecan, Switzerland) at excitation and emission wavelengths of 430 and 492 nm, respectively. The ThT solution was freshly prepared by diluting a ThT stock solution (1 mM, in water) with glycine buffer (50 mM, pH 8.5). Experiments were performed in quadruplicate.
To evaluate the inhibitory effect of KLVFF (SEQ ID NO 1)-modified SMOPs on Aβ aggregation and kinetics, soluble Aβ40 (0.5 nanomol, nmol) was incubated in the absence and presence of different preparations of the SMOPs. Amyloid plaque formation was then monitored by a ThT assay for three days of incubation.

PC12 cells = experiment: Reduction of Aβ-induced toxicity in PC12 cells (MTT assay); assay type: cell-based, rat; settings: for effect on toxicity of aggregated Aβ in PC12 cells (cell viability, MTT): agent:Aβ40 4:1 (2 nmol : 0.5 nmol), aged 48 hours, cells 24 hours, FIG. 2B
Experimental: Prior to the addition of the SMOPs or soluble peptides to the cells, the extent of Aβ40 aggregation in each sample was determined by ThT assay as described above. On the day of the experiment, the medium was replaced with fresh medium (50 μl) and the aged samples (50 μ) were then diluted by a factor of two in the medium. Control wells received PBS (50 μl) only. Cells were incubated for an additional 24 hours and cell viability was then determined by the MTT assay as described above. Each experiment was performed in quadruplicate and repeated three times.

Aβ40 [3] = target: T1, Aβ40; experiment: TEM analysis of samples taken from the ThT assay; assay type: biochemical; settings: 72 hour incubation
FITC-Aβ40 = target: T2, FITC-Aβ40 (Homo sapiens, UniProt P05067); experiment: Direct in vitro binding assay with FITC-Aβ40 (fluorescent microscopy, FACS); settings: soluble FITC-Aβ40 in PBS at 37° C., after extensive washing; fluorescent microscopy and FACS
T2 construct: incubated with soluble FITC-Aβ40
Experimental: Binding of KLVFF (SEQ ID NO 1)-modified SMOP to Aβ was assessed using a fluorescent modified Aβ known as FITC-Aβ40 (fluorescein isothiocyanate) in a direct in vitro assay. In order to confirm that the conjugated KLVFF (SEQ ID NO 1) fragments on SMOPs preserved their recognition capability to bind full length Aβ following the sonochemical process and SMOP generation, KLVFF (SEQ ID NO 1)-modified SMOPs were incubated with soluble FITC-Aβ40 (25 μ, 0.5 nanomolar, nM) in PBS at 37° C. for different periods under constant agitation (750 revolutions per minute (rpm)). At each time point, samples were diluted with cold PBS and the microspheres were washed twice with cold PBS. Ten thousand particles were then analyzed immediately by FACS.
As controls, proteinaceous SMOP without surface modification (prepared as in example 1A, without the addition of a KLVFF (SEQ ID NO 1) peptide) (naked BSA spheres) were prepared. FVKLF-modified SMOP was also prepared as a control, as in Example 1C.

[4] = Administration of SMOP to rats to demonstrate safety; assay type: in vivo; settings: intravenously via tail vein, from 100 μl to highest amount 200 µL, observed 2 weeks; BSA:KLVFF 1:500
Experimental: SMOPs modified with KLVFF (SEQ ID NO 1) (ratio of BSA:KLVFF (SEQ ID NO 1) of 1:500) were used in vivo for toxicological studies. Rats weighing about 250 g each were injected intravenously, via their tail vein, with increasing amounts of the SMOP starting from 100 μl and following an up-down protocol based on the outcome of the initial dose.

T1 sequence (P05067 672-711 limits assumed): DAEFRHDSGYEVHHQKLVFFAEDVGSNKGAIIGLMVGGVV
T2 sequence (P05067 672-711 limits assumed): as above

Row | Compound | effect on uptake of aggregated FITC-Aβ by BV-2 cells [1] | effect on rate (kinetics) of Aβ aggregation (Aβ40 [2]) | effect on Aβ aggregation (ThT fluorescence) (Aβ40 [2]) | effect on toxicity of aggregated Aβ in PC12 cells (cell viability, MTT) (PC12 cells) | formation of Aβ40 fibrils (TEM) (Aβ40 [3]) | FITC-Aβ40 accumulated on the surface of the particles (fluorescent signal) (FITC-Aβ40) | further results
1 | pertussis toxin [PTX] | reduced the uptake of the aggregated Aβ |  |  |  |  |  | 
2 | KLVFF-modified SMOP: oil-filled spherical BSA particles with KLVFFC-NH2 (SEQ ID NO 3) attached via disulfide bonds, prepared by sonication |  | dramatically slowed the rate of Aβ aggregation | significantly decreased the aggregation of Aβ in a dose-dependent manner | significantly reduced | completely arrests the formation of fibrils | intense fluorescent signals | immediate toxicity in rats [4]: did not cause immediate toxicity
3 | KLVFF-NH2 |  |  |  | little or no effect on toxicity |  |  | 
4 | CCCC[C@@H]1NC(=O)[C@@H](CC(C)C)NC(=O)[C@H](CCCCN)NC(=O)[C@@H](CO)NC(=O)[C@H](Cc2c[nH]cn2)NC(=O)[C@@H](Cc2c[nH]c3ccccc23)NC1=O [[lJwHsK], Cyclo-D-leucine-L-noreucine-D-tryptophan-L-histidine-D-serine-L-lysine] (cyclo(K[dL][Nle][dW]H[dS])) |  |  |  |  |  |  | effect on amyloid aggregation / formation (in words) (Aβ40 [2]): drastic effect on amyloid aggregation; reduction of Aβ-induced toxicity in PC12 cells (cyclic peptide) (PC12 cells): effective in reducing Aβ-induced toxicity
5 | FVKLF-modified SMOPs: SMOPs formed with scrambled peptide FVKLFC-NH2 (SEQ ID NO 4); comparator in in vitro studies |  | no or little effect | no or little effect |  | no inhibitory effect | significantly lower amount of FITC-Aβ40 was accumulated | 
6 | fucoidan | reduced the uptake of the aggregated Aβ |  |  |  |  |  | 
